Results taken from patent US20250145673A1.
Where a chain is given by its changes, count along the chain named. Values belong to the binder of their own block, whether it stands above or below them.

What was measured:
C3b [1] = biological target: C3b (UniProt P01024); experiment: ITC, polypeptide titrated into C3b; fit box in the lower panel
C3b [2] = biological target: C3b (UniProt P01024); experiment: ITC, binder titrated into target
C3b [3] = biological target: C3b (UniProt P01024); experiment: ITC
C3b [4] = biological target: C3b (UniProt P01024); experiment: SPR, target amine-coupled to chip, single cycle kinetics, 1:1 Langmuir fit

- Ka (C3b [1]): 7.95e+08 M⁻¹
- -TΔS (C3b [2]): 6.5 kcal/mol
- Kd (C3b [2]): 1.3 nM
- N (C3b [2]): 0.9
- ΔG (C3b [2]): -12.1 kcal/mol
- ΔH (C3b [2]): -18.6 kcal/mol
- Kd (C3b [3]): 1.3 nM
- Kd (C3b [4]): 0.16 nM
B1: polypeptide comprising the amino acid sequence of SEQ ID NO: 33 (designed binder)
chain: MVKVKFAATGEEKEVETSKIANVYRVGKDVLFSYDDQGKIGWGYVSEKDAPKELLDLLARAEREK

- Ka (C3b [1]): 1.4e+09 M⁻¹
- -TΔS (C3b [2]): 14.7 kcal/mol
- Kd (C3b [2]): 0.7 nM
- N (C3b [2]): 0.89
- ΔG (C3b [2]): -12.5 kcal/mol
- ΔH (C3b [2]): -27.2 kcal/mol
- Kd (C3b [3]): 0.7 nM
- Kd (C3b [4]): 0.42 nM
B2: polypeptide comprising the amino acid sequence of SEQ ID NO: 34 (designed binder)
chain: B1 chain with A7D, A21S, N22A, V26T

- Ka (C3b [1]): 3.88e+08 M⁻¹
- -TΔS (C3b [2]): 23.9 kcal/mol
- Kd (C3b [2]): 2.6 nM
- N (C3b [2]): 0.95
- ΔG (C3b [2]): -11.7 kcal/mol
- ΔH (C3b [2]): -35.6 kcal/mol
- Kd (C3b [3]): 2.6 nM
- Kd (C3b [4]): 1.92 nM
B3: polypeptide having the amino acid sequence of SEQ ID NO: 27 (designed binder)
chain: MVKVKFEATGEEKEVDTSKIYQVYRSGKEVLFTYDDNGKTGWGYVSEKDAPKELLDMLARAEREK
